Source: publication PMC2770179 (Journal of molecular catalysis. B, Enzymatic, 2009)

What was measured:
[1] = target: T1, L2S of hE2 (residues 128-330) mutant K276A (human, UniProt P10515 214-416, K276A); test: SPR
T1 sequence (looked up): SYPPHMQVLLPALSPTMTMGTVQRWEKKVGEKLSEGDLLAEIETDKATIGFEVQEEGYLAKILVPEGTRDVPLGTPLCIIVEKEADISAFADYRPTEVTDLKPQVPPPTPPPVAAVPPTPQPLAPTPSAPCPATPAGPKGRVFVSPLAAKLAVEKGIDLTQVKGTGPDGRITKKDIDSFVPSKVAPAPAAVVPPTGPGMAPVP

[2] = target: T2, L2S of hE2 (residues 128-330) mutant R297A (human, UniProt P10515 214-416, R297A); test: SPR
T2 sequence (looked up): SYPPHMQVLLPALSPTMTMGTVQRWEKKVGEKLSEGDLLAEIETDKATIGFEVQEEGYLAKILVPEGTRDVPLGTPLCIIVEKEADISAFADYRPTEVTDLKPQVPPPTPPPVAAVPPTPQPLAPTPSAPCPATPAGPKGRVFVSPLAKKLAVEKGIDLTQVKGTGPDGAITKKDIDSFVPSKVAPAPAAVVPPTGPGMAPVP

fold increase in KD against wild-type L2S [1]: ~86 fold | fold increase in KD against wild-type L2S [2]: 6.8 fold
B1: human pyruvate dehydrogenase (E1), wild type, α2β2 heterotetramer (complex)
chain 1: FANDATFEIKKCDLHRLEEGPPVTTVLTREDGLKYYRMMQTVRRMELKADQLYKQKIIRGFCHLCDGQEACCVGLEAGINPTDHLITAYRAHGFTFTRGLSVREILAELTGRKGGCAKGKGGSMHMYAKNFYGGNGIVGAQVPLGAGIALACKYNGKDEVCLTLYGDGAANQGQIFEAYNMAALWKLPCIFICENNRYGMGTSVERAAASTDYYKRGDFIPGLRVDGMDILCVREATRFAAAYCRSGKGPILMELQTYRYHGHSMSDPGVSYRTREEIQEVRSKSDPIMLLKDRMVNSNLASVEELKEIDVEVRKEIEDAAQFATADPEPPLEELGYHIYSSDPPFEVRGANQWIKFKSVS
chain 2: LQVTVRDAINQGMDEELERDEKVFLLGEEVAQYDGAYKVSRGLWKKYGDKRIIDTPISEMGFAGIAVGAAMAGLRPICEFMTFNFSMQAIDQVINSAAKTYYMSGGLQPVPIVFRGPNGASAGVAAQHSQCFAAWYGHCPGLKVVSPWNSEDAKGLIKSAIRDNNPVVVLENELMYGVPFEFPPEAQSKDFLIPIGKAKIERQGTHITVVSHSRPVGHCLEAAAVLSKEGVECEVINMRTIRPMDMETIEASVMKTNHLVTVEGGWPQFGVGAEICARIMEGPAFNFLDAPAVRVTGADVPMPYAKILEDNSIPQVKDIIFAIKKTLNI
